Source: the RNAGym collection of RNA variant scans (doi:10.7554/elife.90254)

B1: LINE1-mini (parent)
chain: GGCAGAGCUCAACACAGCGUGGCAAAGUGGCUGUGGCUAGACUGCC

Variants of: B1
Assay: self-cleavage, relative activity (ratio to wild type); higher = more cleavage; in vitro, sequencing; the parent is a self-cleaving ribozyme

Variant | self-cleavage
A4G G29U | 0.63
A11G A26U | 0.02
A14C U32A | 0.07
G7C G21U | 0.08
G17U C46A | 0.13
G29A C31A | 0.43
C23G A24U | 0.75
U43A C45A | 0.08
C3U U34G | 0.07
G30A C31U | 0.14
C13A C23U | 0.16
C3G A16U | 0.18
G35C U38A | 0.16
G19C U38G | 0.01
U32C C46A | 0.16
G22C U43A | 0.12
G17U C31G | 1.67
G1A A41U | 0.97
A41G C46A | 0.22
C3G U9C | 0.03
U9C U20G | 0.03
A6C C13G | 0.15
C13U G29U | 0.21
A4U C8A | 0.23

Variant | self-cleavage
G30U G35A | 0.05
G7A C46G | 0.36
G40C A41U | 0.14
G19C G36U | 0.06
A4G A6C | 0.14
A4G A6G | 0.11
G5C G22C | 0.13
U9A A16G | 0.11
G22A C23U | 1.14
G21C G44C | 0.4
U34A C45U | 0.11
A11G C23A | 0.04
G19U G44C | 0.31
G36C C42U | 0.09
C10G C46G | 0.05
G1C C15A | 0.02
G27U U43C | 0.1
A24U C45G | 0.3
U9G U32C | 0.05
G22C | 0.78
G33U U43C | 0.08
G35U C45U | 0.12
C15G U32A | 0.05
C8G U28G | 0.06

Variant | self-cleavage
C15U G27U | 1.36
A12U A14C | 0.05
C10A G44C | 0.07
U20C C46U | 0.42
C8U U9A | 0.32
C3G G5A | 0.68
A14G C15U | 0.11
G22C C42U | 0.21
A12C U32G | 0.06
A12U C31G | 0.04
G27A A39C | 0.11
U9A U38G | 0.22
U28G C42A | 0.18
G1A G44A | 0.28
U32A C37U | 0.08
C18A A26G | 0.57
G27C G44A | 0.47
A11U A25U | 0.37
C15G A16C | 0.11
G21C C45G | 0.07
G21C C45U | 1.56
A4U U20G | 0.09
A12C G35A | 0.04
G7U U28A | 0.03

Variant | self-cleavage
A24U C37U | 0.07
A24U C37A | 0.05
C18A A39C | 0.06
G29C C37U | 0.02
U32G G40U | 0.11
A6U G44U | 0.54
U9G A16G | 0.07
C18A U43C | 0.05
G17U U28G | 0.1
A14C A39C | 0.04
C13A A26C | 0.18
C13G C15G | 0.09
C3U U43G | 0.2
C3U G40C | 0.07
A12C A24G | 0.04
G33A U38C | 0.17
C18G C46A | 0.43
U20G U28G | 0.51
A12G G19U | 0.02
C37G A41C | 0.02
G19C U28G | 0.37
C8A A14G | 0.56
G17A A41U | 0.12
U9G C37U | 0.15

Variant | self-cleavage
A14U | 0.45
A16C G17A | 0.07
A39G G44U | 0.22
U9G G17A | 0.12
A16U G35A | 0.01
U32A G44A | 0.23
A41U C45A | 0.19
C13A | 0.15
U28A G36C | 0.06
C8A G27C | 0.12
C3G U38C | 0.22
A25C G33U | 0.15
C8G G29U | 0.11
G30A | 1.87
G2U C15U | 0.05
G33U G36C | 0.05
A24C C45G | 0.16
G44A C45U | 0.1
G21A C46G | 1.5
A39U G40A | 0.17
U9A C42G | 0.13
A16G G17U | 0.32
A11U G44U | 0.05
C31G U34A | 0.03

Variant | self-cleavage
A14G G21A | 0.71
G5A G19C | 0.06
C15U G44C | 0.31
A6C U43C | 0.08
U28A G30A | 1.65
A12G A26C | 0.03
A4U A6U | 0.13
A12U U28G | 0.12
C13U G40A | 0.1
A26C G36A | 0.14
C8U G27C | 0.11
G29C C31A | 1.34
G19A C45A | 0.79
A11G U32A | 0.02
G21C C37U | 0.01
C3G A41U | 0.29
A4U G36C | 0.07
A4C G36U | 0.1
A4U A24G | 0.26
A25C A39U | 0.52
C8U A24C | 0.24
A11C U20A | 0.02
C8U U34G | 0.22
C15G C42A | 0.04

Variant | self-cleavage
U9A G35C | 0.08
A16U G19A | 0.19
G21A C37U | 0.07
G22A U34C | 0.87
A12U G21U | 0.34
G21A G27A | 1.01
A6U A25G | 0.47
G22A A26C | 0.79
G17C A39C | 0.11
G40U A41C | 0.2
U9C U28G | 0.04
G2U A12C | 0.02
U32C U34C | 0.16
C10U G22A | 0.25
C31G G40C | 0.05
A25U U43A | 0.21
A14C U28G | 0.07
C18U A39C | 0.16
C8U U32A | 0.1
A6G C45U | 0.11
G1A C8U | 0.78
C13G G22U | 0.18
C13G G22C | 0.05
C13G G22A | 0.21

Variant | self-cleavage
G2C C10U | 0.03
G30U C31U | 0.07
G19A G35A | 0.18
G17U G33U | 0.05
G19A C31A | 0.46
G17U U34G | 0.04
A11U G17U | 0.03
A11U G17C | 0.12
G35C C37U | 0.03
G19C A24C | 0.34
U20A C37G | 0.03
U28A G44A | 0.23
G2C G21C | 0.25
A6G C18U | 0.08
G22A U28G | 0.67
G22U U32G | 0.15
G22U G35C | 0.22
A14U G33A | 0.08
G22U G36U | 0.06
U9A G19C | 0.06
G2A G35A | 0.26
G36C A39G | 0.07
G30C A39G | 0.12
U28C A39G | 0.09

Variant | self-cleavage
G19A A41U | 0.77
A4U C37A | 0.16
G5A U43G | 0.86
C18G A25C | 0.2
A6U G33C | 0.43
G29C G30C | 0.23
G5C U38A | 0.09
G22A C37A | 0.04
G29A U32G | 0.46
G2A A11C | 0.05
C18U G33C | 0.04
A6C G36U | 0.06
G5A A24C | 0.08
C10A C46U | 0.07
G29U U34C | 0.13
C18U A26G | 0.65
A4U A12U | 0.12
A16G C37U | 0.04
C18U G19U | 1.14
U9A G21A | 0.3
A4U G29C | 0.24
C42A C45A | 0.09
C10U U20A | 0.18
C8A A11U | 0.03

Variant | self-cleavage
A14U C42U | 0.2
G2U G21A | 0.25
G21C U43C | 0.06
U20G C46G | 0.45
C13G G17A | 0.06
C15U A41C | 0.08
C18U G27C | 0.55
C10A C23U | 0.06
C10U A11G | 0.05
G7C A11G | 0.03
G1U A6G | 0.07
A4C C23G | 0.23
C3G A12C | 0.19
C13G G35U | 0.85
U32C G40A | 0.06
G30C U38G | 0.03
A4G U38C | 0.31
C13A G21U | 0.23
G5U G33A | 0.04
A4U U43C | 0.03
U20C G21U | 0.45
A12U C46G | 0.45
C18G C23A | 0.64
G7A C23G | 0.21

Variant | self-cleavage
U20A U38A | 0.43
C18U G22U | 1.21
U9C G22C | 0.03
A11G A25G | 0.05
C15G A24U | 0.02
G22C G29C | 0.27
A16G C42U | 0.09
U20C C31A | 0.27
G1C A14C | 0.02
G5A U38C | 0.09
U9G C23A | 0.11
U34C A39G | 0.04
A12C A41G | 0.03
C8G U20G | 0.09
C37U C42A | 0.12
A25G G44A | 0.21
A12G U20C | 0.08
U9A G22C | 0.09
A6C A24C | 0.41
G2U C13A | 0.06
G17A C45G | 0.04
G17A C45A | 0.13
G17A C45U | 0.25
A16G C23G | 0.64

Variant | self-cleavage
G5A G33A | 0.1
A11G C42G | 0.01
C15U A26G | 0.88
A11U G33A | 0.03
C15A U20C | 0.04
C8G A16G | 0.11
G22C C37G | 0.05
U38A U43C | 0.13
G21C C23A | 0.43
A25U C45A | 0.41
C15A A39G | 0.08
A6U U20C | 0.3
G21C C31U | 0.3
G29A G35C | 0.09
C13U A39U | 0.08
A26U C45U | 0.83
C8A C46G | 0.33
G22A C46A | 1.03
C8A C23A | 0.25
G1C G7C | 0.02
G33A C46A | 0.1
U20G A25C | 0.19
U20G U32G | 0.09
C8G U32G | 0.06

Variant | self-cleavage
G5U C10A | 0.03
C18U | 1.21
C3A | 0.58
A24U G33U | 0.08
A24C G35C | 0.06
A11G A41C | 0.03
G1C C42A | 0.02
A4C A24C | 0.09
A16C U43A | 0.04
A16C G40A | 0.05
A16C G40U | 0.03
A16C G40C | 0.03
C31A C46G | 0.11
U34G A39G | 0.07
G2C A24U | 0.15
G27C A39G | 0.06
C3G G36C | 0.66
C15U A24U | 0.32
C10G G21U | 0.14
C8U C10A | 0.03
A11U C15G | 0.02
U20A G27U | 0.81
G1A A26G | 1.58
U34G C46A | 0.18

Variant | self-cleavage
U32G U38A | 0.07
A11G A12G | 0.02
G17A C18U | 0.14
A11G G33C | 0.03
C15A G29C | 0.18
C13G U28A | 0.28
G30C A41G | 0.21
C10A G19A | 0.07
C37U U43C | 0.06
C10U U38G | 0.03
C10U U38C | 0.17
C8A C18U | 0.27
C10A A12U | 0.04
A11C G40U | 0.02
A14G U38G | 0.01
C13U C15A | 0.08
C15A C37A | 0.08
C8G C37G | 0.09
G5U G22C | 0.06
G2A C46A | 1.23
G2A C46G | 0.96
G30U A39G | 0.09
